Source: patent US20060029946A1 (Scripps Research, published 2006)

What was measured:
[1] = molecular target: T1, Cdc42-GTPγS (activated Cdc42) (UniProt P60953 1-191)
[2] = molecular target: T1, Cdc42-GTPγS (activated Cdc42); assay: apparent equilibrium binding constant; fluorescence titration of a fixed concentration of labeled WASP fragment with cdc42-GTPγS
RhoA (activated GTPase) = RhoA (activated GTPase) (UniProt P61586 1-193); assay: fluorescence response of the I-SO WASP biosensor with activated GTPases
Rac (activated GTPase) = Rac (activated GTPase) (UniProt P63000 1-192); assay: as above

T1 sequence (P60953 whole entry, the tested form may be a part): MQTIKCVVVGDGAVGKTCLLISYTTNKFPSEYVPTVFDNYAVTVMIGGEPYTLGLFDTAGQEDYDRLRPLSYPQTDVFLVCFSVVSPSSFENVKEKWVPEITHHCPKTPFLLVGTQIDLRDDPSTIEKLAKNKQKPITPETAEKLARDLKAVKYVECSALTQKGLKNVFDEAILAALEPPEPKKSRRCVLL
Chain of RhoA (activated GTPase) (P61586 whole entry): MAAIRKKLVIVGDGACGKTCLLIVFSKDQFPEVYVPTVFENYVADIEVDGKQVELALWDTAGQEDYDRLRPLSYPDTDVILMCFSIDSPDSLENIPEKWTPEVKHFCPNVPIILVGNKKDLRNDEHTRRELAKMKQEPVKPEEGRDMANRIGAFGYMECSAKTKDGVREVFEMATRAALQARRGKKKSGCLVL

B1: Wiskott Aldrich Syndrome Protein (WASP) fragment, residues 201-320, F271C, labeled with S-SO dye 2e (other)
chain: DIQNPDITSSRYRGLPAPGPSPADKKRSGKKKISKADIGAPSGFKHVSHVGWDPQNGFDVNNLDPDLRSLCSRAGISEAQLTDAETSKLIYDFIEDQGGLEAVRQEMRRQEPLPPPPPPS
notes: also called labeled WASP fragment; WASP conjugate; not shown: C-terminal 6His fusion from pET23a
[1]
  change in fluorescence intensity: 3 fold
[2]
  Kd: 150 nM

B2: WASP fragment F271C labeled with I-SO dye (other)
chain: DIQNPDITSSRYRGLPAPGPSPADKKRSGKKKISKADIGAPSGFKHVSHVGWDPQNGFDVNNLDPDLRSLCSRAGISEAQLTDAETSKLIYDFIEDQGGLEAVRQEMRRQEPLPPPPPPS
notes: also called I-SO-WASP biosensor; I-SO labeled WASP fragment; not shown: C-terminal 6His fusion from pET23a
RhoA (activated GTPase)
  binding result: no binding
Rac (activated GTPase)
  binding result: no binding
[1]
  increase in fluorescence intensity: 2.8 fold
